Reference: patent US20040156820A1, “Adjuvant combination formulations” (priority 2000, published 2004)

B1: GM-CSF (10): recombinant murine granulocyte macrophage colony stimulating factor, given with Aβ1-42 peptide (protein, UniProt P01587 18-141, looked up)
Granulocyte-macrophage …: APTRSPITVTRPWKHVEAIKEALNLLDDMPVTLNEEVEVVSNEFSFKKLTCVQTRLKIFEQGLRGNFTKLKGALNMTASYYQTYCPPTPETDCETQVTTYADFIDSLKTFLTDIPFECKKPGQK

Columns and labels:
[1] = type: in vivo, cynomologous monkeys (Macaca fagscicularis); conditions: cynomologous monkeys, five immunizations weeks 0, 4, 8, 18, 23
Method: Immunizations: All intranasal immunizations were delivered with a 100 μl metered dose nasal spray device. All intramuscular injections were given in the quadriceps muscle with needle and syringe. All animals were immunized on a schedule of 0, 4, 8, 18 and 23 weeks.
Group 1: 1000 μg C4 (E9V)-V389.6P peptide in sterile normal saline, final volume 200 μl (100 μl each nostril).
Group 2: 1000 μg C4 (E9V)-V389.6P peptide, 50 μg 529 SE, and 250 μg human GM-CSF, final oil concentration 1%, final volume 1.0 ml (500 μl each quadriceps by IM injection).
All animals were closely monitored for changes in body temperature during the 24 hours immediately following each administration of the immunogen.

Aβ1-42 peptide = assay: Reciprocal anti-Aβ1-42 IgG endpoint total and subclass titers (Example 4); type: in vivo; conditions: Swiss-Webster mice n=10, 30 μg Aβ1-42 s.c. week 0 and 3
Chain of Aβ1-42 peptide (P05067 672-713): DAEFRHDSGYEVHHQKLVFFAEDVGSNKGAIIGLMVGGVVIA
Method: Formulations were mixed by vortex immediately prior to immunization.
After incubation, wells were washed, and developed with ABTS. Wells were read at 405 nm. Titers were standardized using control sera.
The same protocol was followed for analysis of […] peptide-specific antibody and subclass distribution, except that a concentration of 0.3 μg/ml per microtiter plate was used.
Outbred Swiss-Webster mice were divided into groups of ten mice each. Each group received 30 μg of Aβ1-42 peptide, which corresponds to an internal 42 amino acid long region of APP. […] Mice were immunized subcutaneously in the rump with a total volume of 0.2 ml, divided equally into each of two sites at the base of the tail/rump. Immunizations were administered at week 0 and week 3.
Mice were bled at days 0, 20, 35 and 70. Serum was analyzed from individual mice. Reciprocal endpoint anti-Aβ1-42 peptide IgG endpoint total class and subclass titers were measured from individual sera (n=10 Swiss-Webster) at week 5 and at week 10.

| Molecule | Immunogen safety and tolerability [1] | Anti-Aβ1-42 Week 5 IgG Endpoint Titers, Geometric Mean (Aβ1-42 peptide) | Anti-Aβ1-42 Week 10 IgG2a Endpoint Titers, Geometric Mean (Aβ1-42 peptide) | Anti-Aβ1-42 Week 10 IgG Endpoint Titers, Geometric Mean (Aβ1-42 peptide) | Anti-Aβ1-42 Week 5 IgG1 Endpoint Titers, Geometric Mean (Aβ1-42 peptide) | Anti-Aβ1-42 Week 5 IgG2a Endpoint Titers, Geometric Mean (Aβ1-42 peptide) | Anti-Aβ1-42 Week 10 IgG1 Endpoint Titers, Geometric Mean (Aβ1-42 peptide) |
| --- | --- | --- | --- | --- | --- | --- | --- |
| CC[C@H](C)[C@H](NC(=O)[C@H](CO)NC(=O)[C@H](CC(C)C)NC(=O)[C@H](CCCNC(=N)N)NC(=O)[C@H](CCC(=O)O)NC(=O)[C@H](CCCNC(=N)N)NC(=O)[C@@H](NC(=O)[C@H](CC(N)=O)NC(=O)[C@H](CC(N)=O)NC(=O)[C@H](CC(N)=O)NC(=O)[C@@H]1CCCN1C(=O)[C@H](CCCNC(=N)N)NC(=O)[C@@H](NC(=O)[C@H](C)NC(=O)[C@H](Cc1ccc(O)cc1)NC(=O)[C@H](CCSC)NC(=O)[C@H](C)NC(=O)[C@H](CCCCN)NC(=O)CNC(=O)[C@@H](NC(=O)[C@@H](NC(=O)[C@H](CCC(N)=O)NC(=O)[C@H](Cc1c[nH]c2ccccc12)NC(=O)[C@H](CCSC)NC(=O)[C@H](CC(N)=O)NC(=O)[C@@H](NC(=O)[C@@H](NC(=O)[C@H](CCC(N)=O)NC(=O)[C@@H](N)CCCCN)[C@@H](C)CC)[C@@H](C)CC)C(C)C)C(C)C)[C@@H](C)O)[C@@H](C)O)C(=O)NCC(=O)N1CCC[C@H]1C(=O)NCC(=O)N[C@@H](CCCNC(=N)N)C(=O)N[C@@H](C)C(=O)N[C@@H](Cc1ccccc1)C(=O)N[C@@H](Cc1ccc(O)cc1)C(=O)N[C@@H](C)C(=O)N[C@@H](CCCNC(=N)N)C(=O)N[C@@H](CCCNC(=N)N)C(=O)O [C4(E9V)-V389.6P peptide alone] | extremely well tolerated | – | – | – | – | – | – |
| None: 30 μg Aβ1-42 peptide (SEQ ID NO:6) without adjuvant | – | 12,976 | 5,910 | 21,426 | – | – | – |
| B1 | – | 214,497 | 64,910 | 1,049,414 | 8,654 | 25,554 | 8,483 |
